Source: the supplement of paper PMC10567573
± gives the standard deviation.

Test: protein stability index of a GFP-peptide fusion (GPS, HEK-293T) (PSI 1-6); higher = more stable
[1] = treatment: DMSO, c terminus: a fixed tail appended
[2] = treatment: MLN4924 1 uM, 8 h, c terminus: a fixed tail appended
[3] = treatment: DMSO, c terminus: native
[4] = treatment: MLN4924 1 uM, 8 h, c terminus: native
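Note: 24-mer peptide tiles fused after GFP, lentivirally expressed, FACS-sorted into six equal bins by GFP/DsRed ratio, decoded by Illumina sequencing, PSI is the read-weighted mean bin number.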

| Sequence | protein stability index [1] | protein stability index [2] | protein stability index [3] | protein stability index [4] |
| --- | --- | --- | --- | --- |
| TCGEGYQFRVVRCWKMLSPGFDSS [ADAMTSL2] | 2.77 ± 0.43 | 2.28 ± 0.38 | – | – |
| ILAFLVLEAVAGALVVALWGPLQD [TSPAN10] | 2.85 ± 0.24 | 3.03 ± 0.27 | – | – |
| DSVAEVAAKARDTGILIFAIGVGQ [MATN2] | 2.73 ± 0.9 | 2.64 ± 0.97 | – | – |
| EYRQRRERNNIAVRKSRDKAKRRN [CEBPD] | 4.42 ± 0.36 | 4.426 ± 0.023 | – | – |
| EGGEVRFNGKGKKIRKPRTIYCSL [DLX1] | 2.92 ± 0.1 | 3.39 ± 0.26 | – | – |
| KLPFCAMGVSSVIHPKNPHAPTIH [CPOX] | 2.52 ± 0.2 | 2.52 ± 0.31 | – | – |
| NRMHESMKLFDSICNNKWFTDTSI [GNAI1] | 2.38 ± 0.27 | 2.33 ± 0.45 | – | – |
| HVKFRSLSMVSECLFSLINGDDMF [MCOLN1] | 2.84 ± 0.45 | 2.61 ± 0.45 | – | – |
| YFSTPQTMDLFLNYSMNMQPEDV [NANOGP8] | – | – | 2.34 ± 0.21 | 2.27 ± 0.55 |
| LPSLSCRTSCSSRPCVPPSCHGYT [KRT33B] | 2.1 ± 0.11 | 2.09 ± 0.36 | – | – |
| QEPEVPCAAVLPGKPGDRNCPEFP [RSPH3] | 5.21 ± 0.12 | 5.13 ± 0.14 | – | – |
| YHNSPAYLAYINAKSRAEAALEEE [SMARCE1] | 2.53 ± 0.54 | 4.01 ± 0.38 | – | – |
| LHSHRHLYPEGIGARQQQVTTYLH [POMT2] | 2.76 ± 0.21 | 2.82 ± 0.2 | – | – |
| KDVMEKREDSKEAEKSGEATDGAR [CHGA] | 5.79 ± 0.11 | 5.68 ± 0.37 | – | – |
| ASTPTPDDKLFQKLAKVYSYAHGW [CPN1] | 2.38 ± 0.14 | 2.33 ± 0.26 | – | – |
| KLKESTVRRRYSDFEWLRSELERE [SNX3] | 2.99 ± 0.44 | 3.13 ± 0.31 | – | – |
| RCLHMDQLQDFNIPQAGGWGPWGP [ADAMTS4] | 2.24 ± 0.35 | 2.24 ± 0.75 | – | – |
| CQLALQQKRETLSPLCLIPMVTSP [KCTD13] | 2.27 ± 0.16 | 2.19 ± 0.17 | – | – |
| MLALRGQTGGDVNVEMDAAPGVDL [KRT16] | 4.25 ± 0.17 | 4.78 ± 0.17 | – | – |
| YCSIKCQQEHWHAEHKRTCRRKR [ZMYND11] | – | – | 2.92 ± 0.61 | 3.51 ± 0.87 |
| DAGSPYLIGLISDRLRRNWPPSFL [SPNS1] | 2.22 ± 0.28 | 2.08 ± 0.25 | – | – |
| AKVKGHRSQKHKERIRLLRQKREA [C18orf25] | 4.07 ± 0.57 | 4.38 ± 0.16 | – | – |
| ASETFNYSAIDRVKSRGKRLALEK [PI4K2A] | 4.22 ± 0.044 | 4.4 ± 0.26 | – | – |

| Sequence | protein stability index [1] | protein stability index [2] | protein stability index [3] | protein stability index [4] |
| --- | --- | --- | --- | --- |
| AVHLCNALVCQVDNDHKEAVGKMG [ZER1] | 3.75 ± 0.23 | 3.77 ± 0.13 | – | – |
| ITTRVNSEQEHFLIVPFGLLYSEV [ADD1] | 2.74 ± 0.79 | 2.61 ± 0.81 | – | – |
| FAPLWEVFRVSSDKLALCHLELTR [FCHO1] | 2.68 ± 0.36 | 2.52 ± 0.29 | – | – |
| AQTFLFQGQPVVNRPLSLKDQQTF [TRADD] | 3.25 ± 0.26 | 3.39 ± 0.23 | – | – |
| YSFGSGGGYGSSFGGVDGLLAGGE [KRT17] | 2.84 ± 0.13 | 2.9 ± 0.098 | – | – |
| MRLPLPPAQVHSSLSAGEKPGFLA [RASAL3] | 3.4 ± 0.085 | 3.35 ± 0.14 | – | – |
| LSLLTNRGSKMFKLRQMRVEKFIY [MYOZ1] | 2.13 ± 0.34 | 2.38 ± 0.14 | – | – |
| EDERWTNNFREYNLHRVAAHELGH [MMP1] | 3.73 ± 0.19 | 3.62 ± 0.2 | – | – |
| MDNYADLSDTELTTLLRRYNIPHG [EMD] | 3.19 ± 0.11 | 3.37 ± 0.15 | – | – |
| LEALIDTIQKQLKDHSCKDNIREA [EFHC1] | 3.55 ± 0.21 | 3.65 ± 0.25 | – | – |
| AKPNMIISVNGDVITIKSESTFKN [FABP4] | 3 ± 0.56 | 3.03 ± 0.66 | – | – |
| NPMDMGTIKKRLENNYYWSASECM [BRD3] | 2.34 ± 0.31 | 2.65 ± 0.082 | – | – |
| EVPLEVLRQRESKWLDMLNNWDKW [TBC1D10A] | 2.8 ± 0.18 | 3.17 ± 0.49 | – | – |
| MLSHDNITWIAGAVTKDFKLTDKH [ACSBG2] | 2.66 ± 0.42 | 2.86 ± 0.3 | – | – |
| NLLNMAYGVKSPLSLIARFSPIAI [ELAVL3] | 2.83 ± 0.58 | 2.81 ± 0.65 | – | – |
| RYNFTPDPDFKDLGALKPLPACEF [NETO1] | 2.87 ± 0.19 | 2.93 ± 0.33 | – | – |
| GCVSRCWEVQVSPTCPVCKDRASP [TRIM35] | 4.04 ± 0.28 | 4.13 ± 0.44 | – | – |
| FTELRLLLDEEEALAKKFIDKNTQ [TRIM14] | 2.68 ± 0.53 | 3.44 ± 0.93 | – | – |
| VSHVFMLLFNVKSPTDIQDSSIIR [RHOBTB3] | 2.81 ± 0.56 | 2.64 ± 0.48 | – | – |
| ICDLARSIDFNKDGHIDINEFLEA [PPEF2] | 3.6 ± 0.31 | 4.04 ± 0.21 | – | – |
| RRAGAACTLRQKLIFSPCSDCEEE [WEE1] | 4.2 ± 0.25 | 4.39 ± 0.15 | – | – |
| LKLTVVEDVTVGRRQAVAWLVAMH [ZFYVE21] | 3.15 ± 0.56 | 2.91 ± 0.57 | – | – |
| PPLSGRSTPKLTSRSAAQDLDRMG [PPFIA4] | 4.49 ± 0.19 | 4.62 ± 0.096 | – | – |

| Sequence | protein stability index [1] | protein stability index [2] | protein stability index [3] | protein stability index [4] |
| --- | --- | --- | --- | --- |
| EEENAQLRGALQQGEAFQRALESE [PBXIP1] | 5.43 ± 0.32 | 5.39 ± 0.49 | – | – |
| YYPRVQHYRELLDSLPMDAYTHGC [GDAP1] | 2.21 ± 0.17 | 2.32 ± 0.23 | – | – |
| PSLSPGSSCVKYLIFLSNFPFSLL [TSPAN10] | 2.8 ± 0.85 | 2.83 ± 0.6 | – | – |
| SLWERLEFVNGWYILLVTSDVLTI [MCOLN1] | 3.5 ± 0.68 | 3.08 ± 0.45 | – | – |
| EESEKAMQERVQRLEAARLSLEEE [LRRC45] | 5.48 ± 0.2 | 5.57 ± 0.091 | – | – |
| RDSYSSSSRGAPRGGGRGGSRSDR [RBMX] | 5.41 ± 0.24 | 5.44 ± 0.17 | – | – |
| ETLLGDPEKRTQYFDPLRNEYFFD [KCNA4] | 2.91 ± 0.48 | 3.81 ± 0.9 | – | – |
| DESGYVSGYKHAGTYDQKVQGGK [TPPP] | – | – | 5.24 ± 0.15 | 5.4 ± 0.24 |
| LDRHQLPLDDALLSFAHANCTLII [DPCD] | 2.69 ± 0.56 | 2.63 ± 0.48 | – | – |
| REMVMYSITVAFWLLNSWLWFRR [MFF] | – | – | 2.27 ± 0.96 | 2.48 ± 0.86 |
| SIEVGGSVNFDGETIEGAPPLWAA [FEM1C] | 3.92 ± 0.28 | 4.12 ± 0.34 | – | – |
| LPPQYVDDVISRIDRMFPEMSIHL [MED27] | 2.19 ± 0.087 | 2.29 ± 0.29 | – | – |
| CPLTRSNGDLSRSLSPSPLGSSAA [FCHO1] | 4.17 ± 0.22 | 4.17 ± 0.33 | – | – |
| SLKEAEFYDKQLKVLLSGATFLVT [ZFYVE21] | 2.27 ± 0.52 | 2.55 ± 0.19 | – | – |
| GTASSGSSRLPQPSGAGKTVVGVP [ZC2HC1A] | 4.74 ± 0.41 | 4.72 ± 0.12 | – | – |
| MNVDFDAPLGYKEPERQVQHEEST [UFD1] | 5.28 ± 0.062 | 5.31 ± 0.29 | – | – |
| TAIRPLKILPWSPEKIGTRFLLYT [PNLIPRP1] | 2.23 ± 0.21 | 2.37 ± 0.24 | – | – |
| GLHRRPGAGHCSASPGPAAPTARM | 3.76 ± 0.31 | 3.64 ± 0.31 | – | – |
| YSENAPFHLSLFQGWMNLLNMAKK [PLD5] | 2.08 ± 0.61 | 2.23 ± 0.13 | – | – |
| VSGLLVGYELGIISGALLQIKTLL [SLC2A12] | – | 2.97 ± 1.2 | – | – |
| YPPQMGEEYSQIIYSTKLYRFFKY [BTBD10] | 2.88 ± 0.71 | 2.73 ± 0.83 | – | – |
| YSAIDRVKSRGKRLALEKVPKVGQ [PI4K2A] | 4.04 ± 0.33 | 4.12 ± 0.27 | – | – |
| HQLLEPIRDFEARKCPVHGKTMEL [TRIM29] | 3.89 ± 0.17 | 3.84 ± 0.17 | – | – |

| Sequence | protein stability index [1] | protein stability index [2] | protein stability index [3] | protein stability index [4] |
| --- | --- | --- | --- | --- |
| ELSTLRNLFKQLPEPLLASSGHC [CEBPB] | – | – | 2.12 ± 0.44 | 2.38 ± 0.14 |
| EATKEVHTQAENAEFMRNFQKGQV [HMOX1] | 5.04 ± 0.17 | 5.21 ± 0.23 | – | – |
| GEKPFECNECGKAFRWGAHLVQHQ [ZNF232] | 2.58 ± 0.52 | 2.62 ± 0.82 | – | – |
| IVSLLLGTIHALIFAWNKWIDIKQ [STEAP1] | 2.06 ± 0.44 | 2.17 ± 0.29 | – | – |
| SPHSPDSSQSSLAQEEEEEDQGRT [DDIT3] | 5.57 ± 0.21 | 5.54 ± 0.17 | – | – |
| HQRDGTLGALHTSSKPTALPSASS [SASS6] | 4.57 ± 0.25 | 4.55 ± 0.12 | – | – |
| MMRREDEEEEGTMMKAKGDLEMKE [ZBED2] | 5.56 ± 0.25 | 5.64 ± 0.29 | – | – |
| TDLEMQIEGLKEELAYLRKNHEEE [KRT16] | 5.24 ± 0.098 | 5.45 ± 0.23 | – | – |
| GNAHLGYSLVTHIPAGARDIQIVE [ADAMTSL2] | 3.03 ± 0.34 | 3.24 ± 0.13 | – | – |
| ARQATNLKVNFFFERIMKYERLAR [FBXO39] | 2.75 ± 0.82 | 2.41 ± 0.32 | – | – |
| KECVSILPRKESPSVRSSKDGKLL [TNFSF13B] | 4.53 ± 0.11 | 4.56 ± 0.091 | – | – |
| WQSESLPVSLSASQSWHTESLPVS [BCL2L13] | 3.26 ± 0.23 | 3.35 ± 0.14 | – | – |
| TLEEIQKHNHSKSTWLILHHKVYD [CYB5A] | 2.37 ± 0.19 | 2.58 ± 0.24 | – | – |
| VDYKQSVLNVAGEAGGKQKAVEEE [SLC6A17] | 5.52 ± 0.44 | 5.68 ± 0.3 | – | – |
| QCDALIDALNRRKAQLLARVNKEH [TRIM9] | 3.05 ± 0.2 | 3.27 ± 0.23 | – | – |
| TSSSLGDKSEYLEMEEGVKESLCA [KCNA4] | 5.1 ± 0.14 | 4.77 ± 0.41 | – | – |
| MTWSPLACGIVSGKYDSGIPPYSR [KCNAB2] | 3.19 ± 0.54 | 2.92 ± 0.3 | – | – |
| QLEEKLEIANEDRKHALERFEQEA [CCDC89] | 5.4 ± 0.19 | 5.4 ± 0.12 | – | – |
| EGVATYAAAVLFRMSEDKPQDYKK [CTNNB1] | 3.45 ± 0.17 | 3.46 ± 0.21 | – | – |
| VFISSYMVLAPVFGYLGDRYNRKY [SPNS1] | 3.16 ± 0.49 | 2.87 ± 0.62 | – | – |
